# Several values for one entry are separate records, joined by “and”; a condition that tells them apart may be missing. Equal values may be shown once.
# B1: human monoclonal antibody AA12 (antibody, V domains shown)
# VH: EVQLVESGGGLIQPGGSLRLSCAASGFTVSSNYMSWVRQAPGKGLEWVSVIYSGGSTYYADSVKGRFTISRDNSKNTLYLQMNSLRAEDTAVYYCARDRRGFDYWGQGTMVTVSS
# VL: DIQMTQSPLSLSASVGDRVTITCRTSQSISSYLNWYQQKPGKAPKLLIYAASSLQSGVPSRFSGSGSGTDFTLTISSLQPEDFATYYCQQTYSTPLTFGGGTKVEIK
# What was measured:
# [1] = target: recombinant NS1 protein of Zika virus MR766 (Rhesus/1947/Uganda) with C-terminal hexahistidine tag (Zika virus MR766, UniProt Q32ZE1 791-1142)
# [2] = target: recombinant NS1 protein of Zika virus PRVABC59 (2015/Puerto Rico) with C-terminal hexahistidine tag (Example … (Zika virus PRVABC59, UniProt A0A024B7W1 795-1146))
# Chain of recombinant NS1 protein of Zika virus PRVABC59 (2015/Puerto Rico) with C-terminal hexahistidine tag (Example … (A0A024B7W1 795-1146, tags left off): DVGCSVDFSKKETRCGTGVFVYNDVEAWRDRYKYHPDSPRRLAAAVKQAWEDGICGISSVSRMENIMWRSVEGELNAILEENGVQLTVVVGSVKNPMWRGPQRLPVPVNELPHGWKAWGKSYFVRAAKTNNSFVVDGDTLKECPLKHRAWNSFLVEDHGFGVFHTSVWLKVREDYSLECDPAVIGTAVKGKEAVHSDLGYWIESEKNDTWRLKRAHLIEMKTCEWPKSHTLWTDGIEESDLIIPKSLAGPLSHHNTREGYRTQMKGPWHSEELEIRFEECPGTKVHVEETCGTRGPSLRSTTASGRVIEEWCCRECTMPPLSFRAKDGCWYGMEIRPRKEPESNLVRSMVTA
# Chain of recombinant NS1 protein of Zika virus MR766 (Rhesus/1947/Uganda) with C-terminal hexahistidine tag (Q32ZE1 791-1142, tags left off): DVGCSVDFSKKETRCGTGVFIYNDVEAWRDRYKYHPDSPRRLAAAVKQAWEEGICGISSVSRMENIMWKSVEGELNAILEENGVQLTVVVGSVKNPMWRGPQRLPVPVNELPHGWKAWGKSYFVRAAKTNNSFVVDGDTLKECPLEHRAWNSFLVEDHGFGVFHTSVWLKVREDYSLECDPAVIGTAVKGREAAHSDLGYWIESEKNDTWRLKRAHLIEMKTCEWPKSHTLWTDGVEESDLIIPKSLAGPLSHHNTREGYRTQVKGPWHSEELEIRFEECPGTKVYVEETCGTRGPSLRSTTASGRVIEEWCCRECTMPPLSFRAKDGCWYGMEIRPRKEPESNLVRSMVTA
binder,measurement,setting,value
B1,Kd,[1],55.4 nM and 99.8 nM
same,Kd,[2],147 nM and 76.1 nM

# From patent publication US20220017605A1 (ICAHN SCHOOL OF MEDICINE AT MOUNT SINAI, published 2022)
